Results on 103 substances are retold here after the supplement of paper PMC12042874.

± gives the uncertainty stated by the source.

The data set in a line: amyloid nucleation score (Sup35N fusion, yeast selection) (log enrichment); library NNK1; higher = more nucleation; inactive = no reads after selection. The procedure, abridged: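 The nucleation score, computed with DiMSum, is the log enrichment of output over input reads, centred on the mode score of non-aggregating sequences. Sequences with under 100 input reads were dropped. Reads were generated by Illumina sequencing of plasmid inserts from psi-negative yeast with Sup35N fused to peptides of 20 random codons, induced with 100 μM copper sulfate for 24 hours and grown 7 days at 30°C on medium lacking adenine and uracil.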

For the substance QYFSWGRVATCSACG, the amyloid nucleation score amounted to 0.309 ± 0.62.
With MFFLQCQMRLSLLVGNVLMR the figure was -0.054 ± 0.56; with SMGQHHMGGWVYGRKAEKLS, -0.185 ± 0.37; with PYSAQAFERRSHAIRGVSKN, -0.438 ± 0.44.
As to RSFEGKRFNVGWLFASATFM, the amyloid nucleation score came to 0.157 ± 0.46.
For SDASLLTKSVFADGRDQVTR the value was 0.433 ± 0.28; for NNLRYPCLGRCSISFGMVCG, 0.593 ± 0.41; for SLGLNMFGLLCSNFQSVRVK, 0.129 ± 0.53.
Turning to LSNFLHCG, the amyloid nucleation score came out at 0.907 ± 0.4.
The substance MNRVDLCVNA registered an amyloid nucleation score of 0.438 ± 0.38.
For the substance LIFLKLSSIRYFLMGHY, the amyloid nucleation score was found to be 1.43 ± 0.25.
With GGLGTPFFHAPSHMWVKW the figure was -0.551 ± 0.55.
MQVHARFYSFREEDIAGRAR showed an amyloid nucleation score of -0.443 ± 0.52.
Consider WKVKLNGIG, for which the amyloid nucleation score amounted to 0.341 ± 0.28.
As to WHKMMQLSLCSEYELLFNLQ, the amyloid nucleation score was determined as 0.51 ± 0.9.
With KFRESFLT the figure was -1.32 ± 0.94; with LIPCGPLFLFMQTNIDRANM, 7.845 ± 0.044; with MIQRGLVGKDSTHVI, -0.175 ± 0.57.
For DYFWSSSEGWPEFQNIKSIG the value was -0.07 ± 1.4; for CICLDTSGSVLYSLCTDCGL, 0.871 ± 0.69; for PSNPFHCVMKARKSLNGIDR, -0.09 ± 0.29.
ATYYFICMLIVQVHFCLFTM: the amyloid nucleation score was -0.992 ± 0.5.
In turn, LLWTGY came in with an amyloid nucleation score of 2.43 ± 0.099.
For MQNRCSCWNFECRAPW the value was 1.06 ± 0.33.
Substance RTFGYGHHIAGGCRDYRVYR had an amyloid nucleation score of -0.373 ± 0.62.
With SHRWWIM the figure was -0.597 ± 1.1; with LARLLNGQVGNDYCPGVPGG, -0.543 ± 0.4.
With IVVNLGWFQIGIYLPARSDT the figure was -1.24 ± 1.9.
With HSFFMFP the figure was -0.39 ± 0.73.
On to LRRLRTSYMLRAVLKLFLQP, for which the amyloid nucleation score turned out to be 0.956 ± 0.58.
Consider AFLRVIDQQLRLEIHIIMKL, for which the amyloid nucleation score entry is “inactive”.
FFKNLCSRGCLCSYGMVQTV: the amyloid nucleation score amounted to 0.396 ± 0.58.
Turning to LLALYCNDPKLEDSTLREFN, the amyloid nucleation score worked out at 1.15 ± 0.71.
Consider QLVIILERRSWCHIL, for which the amyloid nucleation score stood at 2.42 ± 0.27.
GQEVHISIVNVLQFEYNRYD showed an amyloid nucleation score of 6.074 ± 0.05.
On to LDRLMESGDFGWKYIMG, for which the amyloid nucleation score entry is “inactive”.
For the substance SYNMTITACSNGFPEQRDT, the amyloid nucleation score was determined as 0.062 ± 0.73.
With VNFFLFRQCKGSFAWNHTVA the figure was 6.336 ± 0.058.
For NLDVYFLVRWLLSCRCACRS the value was 0.87 ± 0.62; for RNGLALRLTNTTRSTYLSRQ, -0.166 ± 1.1; for HVLLYCANFVIYTDVA, 2.45 ± 0.26.
Substance ISGFGVIVWGVVSWVWYGTN displayed an amyloid nucleation score of -0.268 ± 0.7.
In turn, KVALESSRAV had an amyloid nucleation score of 0.036 ± 0.88.
With VERTCGVGTRLFTCYGQVAI the figure was -0.3 ± 0.53; with PSIGMVF, 1.77 ± 0.53; with FAWLGCFSWTLNFWDKYMRG, -0.856 ± 1.4.
With QAKLPLTIDCMKCGTVGTGR, the amyloid nucleation score was -0.16 ± 0.34.
With NMLAQSRSSVIAPLRRVWPV the figure was 0.889 ± 0.77.
With SHPRTYPWDSTDFVWLS the figure was -0.549 ± 1.2; with NLSSLSWVTIYKNFCAIMSS, -0.378 ± 0.58.
For HRPYLCGISYGGSRCELYTA the value was 0.839 ± 0.75; for NRFYL, 0.597 ± 0.4.
On to WISYVQNTIYRFAFEESCLG, for which the amyloid nucleation score was 1.31 ± 0.43.
For YENSFGGHYSDESNTRRWEF the value was 1.44 ± 0.36; for VWFPKTDTGVTS, 0.428 ± 0.34.
With ASSIDYQRTS the figure was 0.322 ± 0.71; with VWRLSI, -0.557 ± 0.41.
As for GTVVG, the amyloid nucleation score stood at 0.041 ± 0.54.
In turn, MYFFGQYVCYYWEH registered an amyloid nucleation score of 7.381 ± 0.058.
With FSSICSRMEEGMTE the figure was 0.001 ± 0.34.
On to CPVKGFLSVTACDYL, for which the amyloid nucleation score is -0.384 ± 0.57.
For the substance VRTSYFVAGSGSNAWGGENE, the amyloid nucleation score is -0.956 ± 0.99.
YDNIWYKVNRAYEIRWLVGG came in with an amyloid nucleation score of -0.383 ± 1.7.
With WHKLRPFEGAIKMFSAWISL the entry was “inactive”.
For IAILNLDNLGGYGCNCFHYF, the amyloid nucleation score came to 4.23 ± 0.13.
With VDLISWLVYEKVMSRMNIYN the figure was -0.001 ± 0.4.
On to VKMNVYYLIILNLWSYVMLG, for which the amyloid nucleation score is -0.994 ± 1.4.
Consider SILQFALLMNSRDLVHRGYF, for which the amyloid nucleation score was found to be 3.38 ± 0.17.
CHQFV yielded an amyloid nucleation score of 0.833 ± 0.5.
With TVLSRVFWQRDGFVIAQSDG the entry was “inactive”; with DFYNETVTFFTHKIVINNWT, 2.17 ± 0.31.
With VFFNLIKRWEVVREDTM the figure was -0.426 ± 0.35.
For ISQYILSHLCQFIVSIGLAT, the amyloid nucleation score is -0.454 ± 0.88.
In the case of IWRLWWAKGPGSRLLRCRLY, the amyloid nucleation score was -0.167 ± 0.42.
In the case of YISNTRRLLQMIVCVMKSYG, the amyloid nucleation score result was “inactive”.
For IWVFMVVIMC the value was 1.07 ± 0.79.
On to FTYIISRISFMRDWVF, for which the amyloid nucleation score was -0.257 ± 1.4.
For GFALECESEVWSCYYTIRII, the amyloid nucleation score worked out at 0.444 ± 0.43.
For the substance TLFYFMACGQLLFGKRWNWF, the amyloid nucleation score was determined as 0.095 ± 0.58.
For LMDAEFIMVFTL the value was 0.918 ± 0.2; for YYISRVVVDGIRKYWGYLES, -0.866 ± 1.9; for LNSIMQIQVWIFTLEMMSPM, -1.07 ± 0.98.
For HHKPRPNIQFFRYSCKERAS the value was 0.035 ± 1; for VSGRVGKNAGITGM, 0.813 ± 1.1.
For the substance DDCRMYAFL, the amyloid nucleation score is 0.776 ± 0.36.
Substance DLFLRYSLAGYYAMESPADS registered an amyloid nucleation score of 0.331 ± 0.33.
As to TTWVVFFEPGAV, the amyloid nucleation score was -0.297 ± 0.84.
In the case of IWYRQVCANLLSN, the amyloid nucleation score entry is “inactive”.
The substance NDVTVID came in with an amyloid nucleation score of 0.286 ± 0.17.
As for MSFSPLLFVLATFCFGLWCW, the amyloid nucleation score was -0.402 ± 0.78.
The substance YYCLKPRGQSIGYGGNCLKA yielded an amyloid nucleation score of 0.134 ± 0.83.
With STRDQSDVMDRLTGEHHQQW, the amyloid nucleation score worked out at 0.363 ± 0.41.
With FFDYGDAWSFHRMNNWDVLY the figure was -0.935 ± 0.62.
For ASAFVRVMNV the value was 0.527 ± 0.5; for FFVKMHIFSFFQVATVVYMH, 0.043 ± 0.33; for LYSFNGN, “inactive”.
For VFKSVFY the value was 1.99 ± 0.32.
With ENPWFMCICYGANRVHVCNG, the amyloid nucleation score came out at 0.539 ± 0.33.
With FYVPDWYNCSCIIWGRDACA the figure was 4.19 ± 0.056.
The substance NIILSYLYFRTARVISEDRR yielded an amyloid nucleation score of 4.7 ± 0.081.
Consider CGAMGVVL, for which the amyloid nucleation score came out at 0.112 ± 0.26.
With KSTTYKNLPSHGLRNSICTK the figure was 0.842 ± 0.69; with GQIGACVPLIGVAMGYLS, -0.418 ± 1.5.
